The target of this data set is MuA transposase (Bacteriophage Mu) (UniProt P07636). The data set is described as follows: cell_activity.
MuA transposase (Bacteriophage Mu), sequence (P07636 whole entry): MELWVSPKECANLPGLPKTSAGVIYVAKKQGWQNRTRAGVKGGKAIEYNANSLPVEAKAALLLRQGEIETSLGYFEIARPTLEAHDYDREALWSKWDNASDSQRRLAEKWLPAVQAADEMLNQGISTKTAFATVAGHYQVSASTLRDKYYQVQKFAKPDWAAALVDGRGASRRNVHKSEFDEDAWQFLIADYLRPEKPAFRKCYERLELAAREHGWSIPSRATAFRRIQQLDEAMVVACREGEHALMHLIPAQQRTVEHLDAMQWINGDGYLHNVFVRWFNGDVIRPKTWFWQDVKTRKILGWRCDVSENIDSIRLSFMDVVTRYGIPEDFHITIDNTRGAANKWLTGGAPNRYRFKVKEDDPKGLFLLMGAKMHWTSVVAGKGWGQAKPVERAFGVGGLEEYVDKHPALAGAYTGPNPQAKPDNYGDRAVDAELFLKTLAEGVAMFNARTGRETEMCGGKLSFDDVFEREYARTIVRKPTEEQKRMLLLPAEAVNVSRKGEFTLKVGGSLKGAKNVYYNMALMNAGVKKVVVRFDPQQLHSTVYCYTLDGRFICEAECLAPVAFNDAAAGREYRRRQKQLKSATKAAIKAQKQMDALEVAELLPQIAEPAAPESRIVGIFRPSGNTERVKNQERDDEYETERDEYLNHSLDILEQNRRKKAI

On to “PC-4 SpeI/BglII fragment (precleaved mini-Mu, inverted R1-R2-R3 ends flanking CAM)”, for which the activity by setting is: (induced MuA (0.5 mM IPTG), replicate 204, uninduced 1 and 3) 240 colonies; (preformed CDC (25 mM HEPES pH 7.6, 130 mM NaCl, 10 mM MgCl2, 15% DMSO, 15% glycerol, 30 C 1 h) electroporated into E. coli, 16 blue, 4 white, fragment without …) 20 colonies. Substance “PC-4 SpeI/BglII fragment with attached lacZ-100 ssDNA navigator” came in with an activity (same conditions, 26 blue, 5 white) of 31 colonies.

Where the note is “biotin/streptavidin bridge, induced MuA, uninduced 0”, “PC-4 fragment with lacZ-100 navigator via biotin/streptavidin” displayed an activity of 58 colonies.
